According to patent US20080057492A1, “Interacting site for gp41 on gp120 of hiv-1” (priority 2002, published 2008):

Legend:
Test in all cases: cell-based or functional assay
[1] = target: Chimera P/7CD4bs envelope glycoprotein
[2] = target: MN-P envelope glycoprotein (neutralization resistant primary clone of the HIV-1 MN strain) (HIV-1 MN strain) (UniProt P05877)
[3] = target: Chimera P/7CD4bs/V3 envelope glycoprotein

Substance	fifty percent neutralization concentration (pseudotyped virus) [1] [ng/mL]	fifty percent neutralization concentration (pseudotyped virus) [2] [µg/mL]	fifty percent neutralization concentration (pseudotyped virus) [3] [ng/mL]
monoclonal antibody 4.8d	60	> 2.5	20
monoclonal antibody 17b	480	> 2.5	210
monoclonal antibody 19b	60	> 2.5	16
